Reference: patent US20060210473A1

Assays:
[1] = target: human endoglin (human) (UniProt P17813); test: FACS on MDA-MB-231 and SKBR3 breast tumor lines; one grade for both antibodies; + is CFI 5-25
[2] = target: human endoglin (human) (UniProt P17813); test: FACS on ECV-304; one grade for both antibodies; ++ is CFI 25-50
[3] = target: human endoglin (human) (UniProt P17813); test: FACS, 20 µg/ml TEC-11 on the sorted endoglin^hi fraction of postconfluent HUVEC; mean of 2 studies, SD 3.8
[4] = target: human endoglin (human) (UniProt P17813); test: FACS on HUVEC, concentration giving half-maximal fluorescence
[5] = target: human endoglin (human) (UniProt P17813); test: FACS competition on HUVEC; unlabelled TEC-11 against biotinylated TEC-4 (competitor), ratio 1:1
[6] = target: human endoglin (human) (UniProt P17813); test: cell-based or functional assay
[7] = target: human endoglin (human) (UniProt P17813); test: indirect immunofluorescence, FACS on HUVEC, 10 µg/ml
[8] = target: human endoglin (human) (UniProt P17813); test: FACS, 20 µg/ml TEC-11 on the sorted endoglin^lo fraction of postconfluent HUVEC; mean of 2 studies, SD 2.4
[9] = target: human endoglin (human) (UniProt P17813); test: FACS on U937; one grade for both antibodies; + is CFI 5-25
[10] = target: human endoglin (human) (UniProt P17813); test: FACS on A375M and T8 melanoma lines; one grade for both antibodies; + is CFI 5-25
[11] = target: human endoglin (human) (UniProt P17813); test: FACS on HT-1080 and SAOS-2 sarcoma lines; one grade for both antibodies; + is CFI 5-25
[12] = target: human endoglin (human) (UniProt P17813); test: FACS on L-endoglin fibroblast transfectant; one grade for both antibodies; +++ is CFI 50-100
[13] = target: human endoglin (human) (UniProt P17813); test: FACS on HUVEC; one grade for both antibodies; ++++ is CFI >100
[14] = target: human endoglin (human) (UniProt P17813); test: FACS competition on HUVEC; unlabelled TEC-4 against biotinylated TEC-11 (competitor), ratio 1:1
[15] = target: human endoglin (human) (UniProt P17813); test: FACS competition on HUVEC; unlabelled TEC-4 against biotinylated TEC-11 (competitor), ratio TEC-11:TEC-4 1:100

| corrected fluorescence intensity (CFI) [1] | corrected fluorescence intensity (CFI) [2] | MFI [3] | EC50 [4] | percent blocking [5] | complement fixation, relative to TEC-4 [6] | complement-mediated lysis of HUVEC (trypan blue) [6] | specific mean fluorescence intensity (MFI) [7] | MFI [8] | corrected fluorescence intensity (CFI) [9] | corrected fluorescence intensity (CFI) [10] | corrected fluorescence intensity (CFI) [11] | corrected fluorescence intensity (CFI) [12] | corrected fluorescence intensity (CFI) [13] | percent blocking [14] | percent blocking [15] | Substance |
| --- | --- | --- | --- | --- | --- | --- | --- | --- | --- | --- | --- | --- | --- | --- | --- | --- |
| 5 to 25 cfi | 25 to 50 cfi | 270 MFI | 0.4 µg/mL | 51% | 100 fold | 50 % lysis | 200 MFI | 61.6 MFI | 5 to 25 cfi | 5 to 25 cfi | 5 to 25 cfi | 50 to 100 cfi | > 100 cfi | – | – | TEC-11 (antibody) |
| 5 to 25 cfi | 25 to 50 cfi | – | 4 µg/mL | – | – | 48 % lysis | 200 MFI | – | 5 to 25 cfi | 5 to 25 cfi | 5 to 25 cfi | 50 to 100 cfi | > 100 cfi | 1% | 20% | TEC-4 (antibody) |
